From patent US20230131338A1

What was measured:
[1] = target: human FXIa (activated; Factor XIa protein, human plasma, Enzyme Research Laboratories cat. HFXIa 1111a) (human) (UniProt P03951); assay: SPR (Biacore 8K), mAb captured via anti-human Fc, plasma-derived hFXIa injected, 37°C
[2] = target: human FXI (zymogen; Factor XI protein, human plasma, Enzyme Research Laboratories cat. HFXI 1111) (human) (UniProt P03951); assay: SPR (Biacore 8K), mAb captured via anti-human Fc, plasma-derived hFXI injected, 37°C
[3] = target: human FXI (zymogen; Factor XI protein, human plasma, Enzyme Research Laboratories cat. HFXI 1111) (human) (UniProt P03951); assay: SPR (Biacore 8K), mAb captured via anti-human Fc, plasma-derived hFXI injected, 25°C
[4] = target: human FXIa (activated; Factor XIa protein, human plasma, Enzyme Research Laboratories cat. HFXIa 1111a) (human) (UniProt P03951); assay: SPR (Biacore 8K), mAb captured via anti-human Fc, plasma-derived hFXIa injected, 25°C

## Isotype control mAb [REGN1945] (antibody)
[1]
  25 nM Ag Bound (RU): 0.3 RU
[2]
  25 nM Ag Bound (RU): 3.2 RU
[3]
  25 nM Ag Bound (RU): 1.3 RU
[4]
  25 nM Ag Bound (RU): -1.4 RU
